Entries after “also recorded” stand apart in the source; their conditions may differ.
Key:
[1] = tested on: A375SM human melanoma cell line; test: Western blot of A375SM cells treated with BRAFi (dabrafenib) or 3D1; type: cell-based; settings: 72 hr
Protocol: (§1) To determine the level of Nodal expression in brain, kidney, liver, pancreas, heart and skeletal muscle ready to use adult tissue extracts for Western blotting (WB) were purchased from Santa Cruz Biotechnology. For WB experiments of cell lines, whole cell lysates were prepared and quantified. SDS-PAGE gel electrophoresis and WB were performed using standard techniques. PVDF membranes were blocked in 5% non-fat milk or 5% BSA and antibodies diluted in either 5% non-fat milk or 5% bovine serum albumin overnight at 4° C., depending on the manufacturer's recommendations. Signal was detected using West Pico chemiluminescence reagent (Thermo Fisher) and exposure to x-ray film.

C8161 melanoma cells = test: Soft agar clonogenic / anchorage independent growth assay; type: cell-based, human; settings: three weeks in soft agar, vs untreated and IgG control
Protocol: (§2) Untreated cells, or cells treated with either IgG Control or 3D1 anti-Nodal antibody for 72 hours were cultured in soft agar for three weeks (soft agar clonogenic assay). […] C8161 cells were treated with either 4 μg/ml of either Santa Cruz (SC), or 3D1 function blocking anti-Nodal antibodies, or IgG Control and cultured in three dimensional cultures for 24 hours to measure their ability to engage in vasculogenic mimicry (VM).
C8161 melanoma cells (5,000 cells/well) were suspended in 0.35% agarose, RPMI 1640; 10% serum with of either 4 μg/ml mouse IgG control (Jackson ImmunoResearch, West Groove, Pa.) or 3D1 mAb (2.8 μg/ml) and were then overlayed onto a solidified layer of 0.5% agar; RPMI 1640; 10% serum in 6-well dishes. Cell clusters were allowed to form and were scored (50 cells or larger clusters) after 3 weeks in culture. Triplicate wells were averaged from separate experiments and presented as a percentage (mean±SEM) of IgG control.

[2] = tested on: MDA-MB-231 breast cancer cells; test: Western blot analysis of MDA-MB-231 breast cancer cells treated with 3D1; type: cell-based, human; settings: 72 hrs
Protocol: as §1

C8161 cells = test: Vasculogenic mimicry / vasculogenic network formation assay in 3D culture; type: cell-based, human; settings: 24 hours, vs IgG control
Protocol: as §2
Three-dimensional matrices were prepared by spreading 75 μl of ice-cold Matrigel (average 12-15 mg/ml; Corning, Bedford, Mass.) into 12-well culture dishes and polymerized for one hour at 37° C. C8161 human melanoma cells (1×10^5 cells/well) were then plated onto the prepared Matrigel matrices in the presence of either 4 μg/ml mouse IgG control or 3D1 mAb (2.8 μg/ml). No additional antibody was added. Tubular network formation was then observed after 24 hr and images captured digitally using a Zeiss model 25 inverted microscope (Carl Zeiss, Inc, Thornwood, N.Y.) and Hitachi HV-C20 CCD camera (Hitachi Denshi Ltd., Woodbury, N.Y.). Mean values were calculated from images of at least four different fields of both the IgG control and 3D1 mAb treated cultures, and then analyzed using the AngioSys software package (TCS CellWorks, Ltd., Buckingham, UK) with the mean number (±SEM) of junctions and tubules calculated from the analyzed fields.

endogenous Nodal protein = biological target: T1, endogenous Nodal protein (Homo sapiens, UniProt Q96S42); test: Western blot detection of endogenous Nodal in human melanoma cell lysates with 3D1; type: binding; settings: 3D1 at 2 μg/mL; panel of human melanoma cell lines and HEK-293
T1 construct: recognize the endogenous forms of Nodal protein in human melanoma cells; endogenous in cells; host or cells: human melanoma lines PES, A-375, SK-MEL, WM 266, LCM (blot)
T1 sequence (Q96S42 238-347): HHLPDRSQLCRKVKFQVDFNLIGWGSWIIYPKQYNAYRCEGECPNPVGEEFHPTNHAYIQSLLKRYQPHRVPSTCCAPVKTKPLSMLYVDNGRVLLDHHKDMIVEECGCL
Protocol: Western blot analyses for the detection of endogenous Nodal protein were performed using the following human skin malignant melanoma cell lines: PES, A-375, SK-MEL, WM 266 and LCM. HEK-293 (human embryonic kidney) cells and 100 ng of rhNodal protein were used as positive controls. Cells were lysed performing three freeze/thaw cycles in 50 mM Tris-HCl pH 7.5, 500 mM NaCl, 1% NP-40, 10 mM EDTA, 1 mM MgCl2, 1 mM CaCl2, 10% Glycerol, with an added cocktail of protease inhibitors and PMSF (phenyl-methanesulfonylfluoride). Cell lysates were cleared by centrifugation at 12,000 rpm for 20 min at 4° C. and the supernatants were quantified by Bradford assay. 50 μg of cell lysate from each sample were applied to a 15% SDS-PAGE gel under reducing conditions and electrophoresed for 3 h at 80 V. Separated proteins were transferred onto a polyvinylidene difluoride (PVDF) membrane (Millipore), previously soaked in methanol 100% for 5 min. […] The target protein was detected using the enhanced chemi-luminescent substrate method with the SuperSignal West Pico kit provided by Pierce Chemical Co. following the manufacturer's instructions. Signals were acquired with the ChemiDoc XRS video densitometer using the Quantity One software.

recombinant Nodal = biological target: T2, recombinant Nodal (Homo sapiens, UniProt Q96S42); test: SPR dose-dependent binding of human recombinant Nodal to 3D1 immobilized on the CM5 sensor chip; set-up: E. coli derived His238 Leu347, with an N-terminal Met; purchased R&D System 3218ND; host or cells: E. coli; settings: rhNodal injected, read-out: estimated KD
T2 sequence (Q96S42 238-347): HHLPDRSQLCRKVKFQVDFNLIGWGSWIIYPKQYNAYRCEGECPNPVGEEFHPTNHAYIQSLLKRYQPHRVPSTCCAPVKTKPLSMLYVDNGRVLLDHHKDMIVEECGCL
Source text: Dose-dependent binding of human recombinant Nodal to 3D1 antibody immobilized on the CM5 sensor chip was characterized.

Kd (recombinant Nodal): 6.6 nM
B1: 3D1: mouse monoclonal anti-Nodal antibody raised against hNodal(44-67); light chain SEQ ID NO:1, heavy chains SEQ ID NO:2 and 3 (protein)
light: DIKMTQSPASLSASVGETVTITCRASGNIHNYLAWYQQKQGKSPQLLVYNAKTLADGVPSRFSGSGSGTQYSLKINSLQPEDFGSYYCQHFWSTPHVRCWDQAGTETEAW
heavy 1: VKLVESGGGLVKPGGSLKLSCAASGFTFSSYAMSWVRQTPEKRLEWVASISSGGCTYYPDSVKGRFTISRDNARNILYLQMSSLRSEDTAMYYCARGSMITADGNSLLLCYGLLGSRNLXHR
heavy 2: VKLVESGGGLVQPGGSMKLSCVASGFTFRNYWMSWVRQSPEKGLEWVAEIRLKSDNYAARYAESVKGKFTISRDDSKSRLYLQMNSLRAEDTGIYYCTGIRRFAYWGQGTL
modifications: not fully specified; (120)..(120) Xaa can be any naturally occurring amino acid
Nodal expression [1]: more dramatic reduction in Nodal expression | Nodal expression ([1]; listed as 3D1 mAb): significantly reduced | clonogenicity / anchorage independent growth in soft agar (C8161 melanoma cells): a decrease in clonogenicity | clonogenicity / anchorage independent growth in soft agar (C8161 melanoma cells; listed as 3D1 mAb): reduced ability to form non-adherent spheroidal clusters; also recorded: significant reduction in anchorage independent growth | Nodal expression and P-H3 by WB [2]: noteworthy reduction | reduction in Nodal ([2]; 4 μg/ml, vs IgG control): 45% | reduction in the level of the proliferation/mitosis marker P-H3 ([2]; 4 μg/ml, vs IgG control): 49% | formation of vasculogenic mimicry networks (junctions and tubules) (C8161 cells): did not complete the formation of networks | formation of vasculogenic mimicry networks (junctions and tubules) (C8161 cells; listed as 3D1 mAb): unable to form complete networks characteristic of VM; also recorded: significant reduction in the ability to form junctions and tubules | staining of endogenous Nodal forms in Western blot (endogenous Nodal protein): able to stain the immature form pro-Nodal

— patent US10508147B2, “Anti-nodal antibodies and methods of using same” (ANN AND ROBERT H. LURIE CHILDREN'S HOSPITAL OF CHICAGO, priority 2014, dated 2019)
